Data on two molecules can be found in PMC7448383.

Common to all, as to experiment: EMSA
Data set [1] concerns the target G3BP1 dIDR3 (dRGG) (human, UniProt Q13283 1-410, del411-466).
In data set [2] the target is G3BP1 dRBD (human, UniProt Q13283 1-334, del335-466).
For data set [3], the target named is G3BP1 WT (human, UniProt Q13283 1-466).
The target in data set [4] is G3BP1 S149A (human, UniProt Q13283 1-466, S149A).
Sequence of G3BP1 S149A (Q13283 whole entry S149A): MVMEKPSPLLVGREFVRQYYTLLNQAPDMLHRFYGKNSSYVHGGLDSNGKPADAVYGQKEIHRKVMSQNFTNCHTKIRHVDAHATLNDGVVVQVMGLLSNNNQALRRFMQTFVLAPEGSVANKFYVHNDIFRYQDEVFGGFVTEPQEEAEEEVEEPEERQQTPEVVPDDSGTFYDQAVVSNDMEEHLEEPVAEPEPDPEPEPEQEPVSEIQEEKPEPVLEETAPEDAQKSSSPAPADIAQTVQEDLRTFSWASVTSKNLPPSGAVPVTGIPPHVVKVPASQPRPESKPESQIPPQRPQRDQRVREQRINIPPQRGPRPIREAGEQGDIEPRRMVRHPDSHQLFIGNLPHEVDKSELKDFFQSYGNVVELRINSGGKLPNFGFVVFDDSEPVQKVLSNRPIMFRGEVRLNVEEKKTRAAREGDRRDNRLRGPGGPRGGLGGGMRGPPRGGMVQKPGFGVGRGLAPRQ

Sequence of G3BP1 dRBD (Q13283 1-334, stated change not applied): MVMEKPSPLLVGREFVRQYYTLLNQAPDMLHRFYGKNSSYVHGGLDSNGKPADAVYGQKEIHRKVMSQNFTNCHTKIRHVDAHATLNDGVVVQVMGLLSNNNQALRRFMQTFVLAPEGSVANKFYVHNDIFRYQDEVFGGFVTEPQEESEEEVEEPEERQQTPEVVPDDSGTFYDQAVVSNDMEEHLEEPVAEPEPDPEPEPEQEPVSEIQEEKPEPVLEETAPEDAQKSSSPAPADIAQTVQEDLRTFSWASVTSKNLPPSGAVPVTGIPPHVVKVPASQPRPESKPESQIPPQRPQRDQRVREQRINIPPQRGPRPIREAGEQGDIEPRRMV
Sequence of G3BP1 WT (Q13283 whole entry): as the sequence (Q13283 whole entry S149A) above, with A149S counted along it
Sequence of G3BP1 dIDR3 (dRGG) (Q13283 1-410, stated change not applied): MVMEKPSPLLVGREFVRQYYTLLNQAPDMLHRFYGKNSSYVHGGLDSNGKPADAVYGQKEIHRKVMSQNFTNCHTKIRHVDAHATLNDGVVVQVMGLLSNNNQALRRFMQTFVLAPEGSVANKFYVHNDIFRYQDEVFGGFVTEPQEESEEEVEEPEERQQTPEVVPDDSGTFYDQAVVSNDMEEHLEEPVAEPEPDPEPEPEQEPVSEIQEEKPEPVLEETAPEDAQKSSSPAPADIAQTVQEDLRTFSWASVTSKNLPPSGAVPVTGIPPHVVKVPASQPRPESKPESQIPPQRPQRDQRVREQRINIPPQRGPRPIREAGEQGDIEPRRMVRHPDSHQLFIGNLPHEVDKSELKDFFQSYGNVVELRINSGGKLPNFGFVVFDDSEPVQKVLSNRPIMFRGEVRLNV

B1: 100-base RNA (ssRNA)
RNA: AGCCUGAAUCUCAGAUUCCACCACAAAGACCUCAGCGGGAUCAAAGAGUGCGAGAACAACGAAUAAAUAUUCCUCCCCAAAGGGGACCCAGACCAAUCCG
With B1, the binding result in data set [1] and in data set [2] was “no binding” throughout.

B2: 20-base RNA (ssRNA)
RNA: AGAUUCCACCACAAAGACCC
As for B2, the binding result in data set [3] and in data set [4] was “binds” in each case.
